Assay results reported in paper PMC2873218.

Target: microtubules
Assay: co-sedimentation

Sequence of microtubules (P68363 whole entry, chain 1 of 2): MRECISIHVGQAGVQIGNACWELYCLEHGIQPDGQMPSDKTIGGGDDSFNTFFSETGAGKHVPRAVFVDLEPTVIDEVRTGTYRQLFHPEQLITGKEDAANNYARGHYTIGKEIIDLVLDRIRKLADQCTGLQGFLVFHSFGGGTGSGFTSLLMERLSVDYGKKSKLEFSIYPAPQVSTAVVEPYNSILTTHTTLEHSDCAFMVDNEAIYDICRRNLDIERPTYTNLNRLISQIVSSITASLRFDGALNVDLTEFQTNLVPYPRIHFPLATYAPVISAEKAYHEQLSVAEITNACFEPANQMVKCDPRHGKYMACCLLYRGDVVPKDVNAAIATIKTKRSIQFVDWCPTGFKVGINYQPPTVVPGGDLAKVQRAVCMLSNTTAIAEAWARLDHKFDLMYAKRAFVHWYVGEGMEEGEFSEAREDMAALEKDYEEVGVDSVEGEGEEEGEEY
Sequence of microtubules (A8K068 whole entry, chain 2 of 2, further chain): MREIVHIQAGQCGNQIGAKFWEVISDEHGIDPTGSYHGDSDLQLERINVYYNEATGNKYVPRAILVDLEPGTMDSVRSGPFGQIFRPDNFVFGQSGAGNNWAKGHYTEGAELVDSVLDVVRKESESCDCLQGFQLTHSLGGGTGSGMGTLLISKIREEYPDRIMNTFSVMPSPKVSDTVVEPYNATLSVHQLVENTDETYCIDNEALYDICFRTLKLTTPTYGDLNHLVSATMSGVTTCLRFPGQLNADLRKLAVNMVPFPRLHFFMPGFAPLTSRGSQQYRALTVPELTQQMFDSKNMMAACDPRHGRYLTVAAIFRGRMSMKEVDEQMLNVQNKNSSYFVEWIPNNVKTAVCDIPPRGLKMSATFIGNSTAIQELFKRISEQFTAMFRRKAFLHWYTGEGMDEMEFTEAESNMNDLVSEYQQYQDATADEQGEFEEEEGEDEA
Sequence of C. elegans KMN network containing KNL-1SD and the NDC-80SD complex (Q17635 whole entry, looked up): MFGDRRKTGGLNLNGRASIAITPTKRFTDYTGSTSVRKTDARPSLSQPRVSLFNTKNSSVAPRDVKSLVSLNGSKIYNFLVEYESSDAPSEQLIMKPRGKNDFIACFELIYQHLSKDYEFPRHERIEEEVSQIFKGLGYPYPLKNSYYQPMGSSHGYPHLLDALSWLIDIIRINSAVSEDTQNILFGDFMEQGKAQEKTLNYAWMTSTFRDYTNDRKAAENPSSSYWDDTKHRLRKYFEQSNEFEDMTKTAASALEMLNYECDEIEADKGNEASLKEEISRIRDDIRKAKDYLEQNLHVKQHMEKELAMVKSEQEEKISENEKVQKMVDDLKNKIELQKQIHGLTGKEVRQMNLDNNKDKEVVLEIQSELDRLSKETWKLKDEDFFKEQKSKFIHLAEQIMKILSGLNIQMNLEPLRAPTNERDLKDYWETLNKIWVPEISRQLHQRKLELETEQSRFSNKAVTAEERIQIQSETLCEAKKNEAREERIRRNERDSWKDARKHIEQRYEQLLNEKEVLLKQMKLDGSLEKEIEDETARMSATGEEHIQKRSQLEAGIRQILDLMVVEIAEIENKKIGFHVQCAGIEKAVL
Sequence of C. elegans KMN network containing KNL-1SD and the NDC-80SD complex (P34278 whole entry, looked up): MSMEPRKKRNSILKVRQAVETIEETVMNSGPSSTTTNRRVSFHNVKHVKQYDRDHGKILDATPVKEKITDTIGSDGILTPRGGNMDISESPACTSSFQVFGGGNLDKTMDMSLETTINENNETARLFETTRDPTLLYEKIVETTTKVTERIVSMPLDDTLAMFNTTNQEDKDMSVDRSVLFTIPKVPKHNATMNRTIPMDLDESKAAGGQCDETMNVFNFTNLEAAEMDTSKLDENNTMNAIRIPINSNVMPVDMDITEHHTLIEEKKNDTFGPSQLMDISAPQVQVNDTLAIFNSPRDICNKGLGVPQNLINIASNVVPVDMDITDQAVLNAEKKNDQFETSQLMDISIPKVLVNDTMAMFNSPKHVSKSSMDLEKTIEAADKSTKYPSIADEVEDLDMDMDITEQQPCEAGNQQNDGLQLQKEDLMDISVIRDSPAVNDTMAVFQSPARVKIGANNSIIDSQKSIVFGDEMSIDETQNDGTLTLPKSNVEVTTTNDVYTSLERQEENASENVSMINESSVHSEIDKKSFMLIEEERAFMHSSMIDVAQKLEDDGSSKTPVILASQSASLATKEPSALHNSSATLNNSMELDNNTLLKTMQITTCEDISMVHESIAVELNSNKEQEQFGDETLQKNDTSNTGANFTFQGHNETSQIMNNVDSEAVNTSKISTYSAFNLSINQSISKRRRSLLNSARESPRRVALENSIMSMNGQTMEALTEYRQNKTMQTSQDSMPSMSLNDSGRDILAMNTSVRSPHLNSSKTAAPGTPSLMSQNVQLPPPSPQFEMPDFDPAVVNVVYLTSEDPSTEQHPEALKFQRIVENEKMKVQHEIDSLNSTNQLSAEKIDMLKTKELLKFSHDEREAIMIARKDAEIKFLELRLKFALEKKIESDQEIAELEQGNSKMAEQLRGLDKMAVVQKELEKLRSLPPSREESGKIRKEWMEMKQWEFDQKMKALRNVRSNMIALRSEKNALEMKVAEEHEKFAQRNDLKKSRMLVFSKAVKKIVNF
Sequence of C. elegans KMN network containing KNL-1SD and the MIS-12SD complex (Q17635 whole entry, looked up): as the sequence (Q17635 whole entry, looked up) above
Sequence of C. elegans KMN network containing KNL-1SD and the MIS-12SD complex (P34278 whole entry, looked up): as the sequence (P34278 whole entry, looked up) above

Substance	Kd
C. elegans KMN network containing KNL-1SD (from UniProt P34278 1-1010; Q17635 1-590) (complex)	2.1 µM
C. elegans KMN network containing KNL-1SD and the NDC-80SD complex (from UniProt P34278 1-1010; Q17635 1-590)	4.9 µM
C. elegans KMN network containing KNL-1SD and the MIS-12SD complex (from UniProt P34278 1-1010; Q17635 1-590)	5.3 µM
